Data reported in patent US20050064507.

Columns and labels:
[1] = molecular target: T1, ADD2 peptide KKKFRTPSFLKKSKK (SEQ ID NO:95) (not fully specified)
T1 chain: KKKFRTPSFLKKSKK

[2] = molecular target: T2, AKAP12 peptide AGWRKKTSFRKPKED (SEQ ID NO:99) (not fully specified)
T2 chain: AGWRKKTSFRKPKED

[3] = molecular target: T3, ARHGAP4 peptide AGPLRKSSLKKGGRL (SEQ ID NO:98) (not fully specified)
T3 chain: AGPLRKSSLKKGGRL

[4] = molecular target: T4, ARHGAP6 peptide SAQITIPKDGQKRKKSLRKK (SEQ ID NO:156) (not fully specified)
T4 chain: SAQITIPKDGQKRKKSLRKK

[5] = molecular target: T5, DGKI peptide NRKKKRTSFKRKA (SEQ ID NO:79) (not fully specified)
T5 chain: NRKKKRTSFKRKA

[6] = molecular target: T6, DGKZ peptide KKKKRASFKRKSSKKG (SEQ ID NO:77) (not fully specified)
T6 chain: KKKKRASFKRKSSKKG

[7] = molecular target: T7, M1 muscarinic receptor peptide RWDKRRWRKIPKRPGSVHRT (SEQ ID NO:155) (not fully specified)
T7 chain: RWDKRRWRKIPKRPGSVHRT

[8] = molecular target: T8, … peptide KKPFKLSGLSFKRNRKE (SEQ ID NO:88) (not fully specified)
T8 chain: KKPFKLSGLSFKRNRKE

[9] = molecular target: T9, MAP3K14 peptide WKGKRRSKARKKRK (SEQ ID NO:100) (not fully specified)
T9 chain: WKGKRRSKARKKRK

[10] = molecular target: T10, MARCKS peptide KKKKKRFSFKKSFKL (SEQ ID NO:80) (not fully specified)
T10 chain: KKKKKRFSFKKSFKL

[11] = molecular target: T11, MARCKS peptide KKRFSFKKSFKLSGFSFKKN (SEQ ID NO:123) (not fully specified)
T11 chain: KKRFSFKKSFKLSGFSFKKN

[12] = molecular target: T12, MGC2941 peptide RPTPGDGEKRSRIKKSKKRK (SEQ ID NO:139) (not fully specified)
T12 chain: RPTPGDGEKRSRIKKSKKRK

[13] = molecular target: T13, MLK3 peptide QQVDRERPHVRRRRGTFKRS (SEQ ID NO:128) (not fully specified)
T13 chain: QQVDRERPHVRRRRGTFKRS

[14] = molecular target: T14, Myt1 kinase peptide PPRTPGWHQLQPRRVSFRGE (SEQ ID NO:163) (not fully specified)
T14 chain: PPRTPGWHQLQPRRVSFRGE

[15] = molecular target: T15, NEURL peptide ALRRPSLRREADD (SEQ ID NO:105) (not fully specified)
T15 chain: ALRRPSLRREADD

[16] = molecular target: T16, NF1 peptide SQVQKQRSAGSFKRNSIKKI (SEQ ID NO:127) (not fully specified)
T16 chain: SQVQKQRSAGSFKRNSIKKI

[17] = molecular target: T17, NIK peptide WKGKRRSKARKKRK (SEQ ID NO:131) (not fully specified)
T17 chain: WKGKRRSKARKKRK

[18] = molecular target: T18, NMDAR1 peptide RAITSTLASSFKRRR (SEQ ID NO:122) (not fully specified)
T18 chain: RAITSTLASSFKRRR

[19] = molecular target: T19, PARIS1 peptide EYLERRASRRRAV (SEQ ID NO:138) (not fully specified)
T19 chain: EYLERRASRRRAV

[20] = molecular target: T20, PARIS1 peptide RELEQLKAEYLERRASRRRA (SEQ ID NO:148) (not fully specified)
T20 chain: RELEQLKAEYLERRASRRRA

[21] = molecular target: T21, PLEC1 peptide KRERKTSSKSSVRKRR (SEQ ID NO:81) (not fully specified)
T21 chain: KRERKTSSKSSVRKRR

[22] = molecular target: T22, PLEK peptide KFARKSTRRSIRLPE (SEQ ID NO:78) (not fully specified)
T22 chain: KFARKSTRRSIRLPE

[23] = molecular target: T23, PSCD2 peptide AARKKRISVKKKQEQ (SEQ ID NO:93) (not fully specified)
T23 chain: AARKKRISVKKKQEQ

[24] = molecular target: T24, PSCDBP peptide LSSMFGTLPRKSRKGSVRKQ (SEQ ID NO:144) (not fully specified)
T24 chain: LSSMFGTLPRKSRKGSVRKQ

[25] = molecular target: T25, SMARCA5 peptide MAQIERGEARIQRRISIKKA (SEQ ID NO:166) (not fully specified)
T25 chain: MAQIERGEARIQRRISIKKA

[26] = molecular target: T26, beta adducin peptide KKKFRTPSFLKKSKK (SEQ ID NO:135) (not fully specified)
T26 chain: KKKFRTPSFLKKSKK

[27] = molecular target: T27, dag kinase iota peptide NRKKKRTSFKRKA (SEQ ID NO:115) (not fully specified)
T27 chain: NRKKKRTSFKRKA

[28] = molecular target: T28, dag kinase zeta peptide RPQNTLKASKKKKRASFKRK (SEQ ID NO:118) (not fully specified)
T28 chain: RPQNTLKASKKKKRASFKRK

[29] = molecular target: T29, fit1 peptide VQMTWSYPDEKNKRASVRRR (SEQ ID NO:158) (not fully specified)
T29 chain: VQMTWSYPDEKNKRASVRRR

[30] = molecular target: T30, kinesin 3C peptide LEKRGMLGKRPRRKSSRRKK (SEQ ID NO:133) (not fully specified)
T30 chain: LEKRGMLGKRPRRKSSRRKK

[31] = molecular target: T31, ubiquitin specific protease 8 peptide RARRDSLKKIEIW (SEQ ID NO:136) (not fully specified)
T31 chain: RARRDSLKKIEIW

B1: PKC-zeta (protein)
chain: MPSRTGPKMEGSGGRVRLKAHYGGDIFITSVDAATTFEELCEEVRDMCRLHQQHPLTLKWVDSEGDPCTVSSQMELEEAFRLARQCRDEGLIIHVFPSTPEQPGLPCPGEDKSIYRRGARRWRKLYRANGHLFQAKRFNRRAYCGQCSERIWGLARQGYRCINCKLLVHKRCHGLVPLTCRKHMDSVMPSQEPPVDDKNEDADLPSEETDGIAYISSSRKHDSIKDDSEDLKPVIDGMDGIKISQGLGLQDFDLIRVIGRGSYAKVLLVRLKKNDQIYAMKVVKKELVHDDEDIDWVQTEKHVFEQASSNPFLVGLHSCFQTTSRLFLVIEYVNGGDLMFHMQRQRKLPEEHARFYAAEICIALNFLHERGIIYRDLKLDNVLLDADGHIKLTDYGMCKEGLGPGDTTSTFCGTPNYIAPEILRGEEYGFSVDWWALGVLMFEMMAGRSPFDIITDNPDMNTEDYLFQVILEKPIRIPRFLSVKASHVLKGFLNKDPKERLGCRPQTGFSDIKSHAFFRSIDWDLLEKKQALPPFQPQITDDYGLDNFDTQFTSEPVQLTPDDEDAIKRIDQSEFEGFEYINPLLLSTEESV
[1]
  in vitro phosphorylation (% of best substrate): 5
[2]
  in vitro phosphorylation (% of best substrate): 10
[3]
  in vitro phosphorylation (% of best substrate): 4
[4]
  in vitro phosphorylation, 1 uM peptide (% of best substrate): 15
  in vitro phosphorylation, 10 uM peptide (% of best substrate): 44
[5]
  in vitro phosphorylation (% of best substrate): 18
[6]
  in vitro phosphorylation (% of best substrate): 60
[7]
  in vitro phosphorylation, 1 uM peptide (% of best substrate): 19
  in vitro phosphorylation, 10 uM peptide (% of best substrate): 6
[8]
  in vitro phosphorylation (% of best substrate): 4
[9]
  in vitro phosphorylation (% of best substrate): 8
[10]
  in vitro phosphorylation (% of best substrate): 16
[11]
  in vitro phosphorylation, 1 uM peptide (% of best substrate): 20
  in vitro phosphorylation, 10 uM peptide (% of best substrate): 20
[12]
  in vitro phosphorylation, 1 uM peptide (% of best substrate): 1
  in vitro phosphorylation, 10 uM peptide (% of best substrate): 1
[13]
  in vitro phosphorylation, 1 uM peptide (% of best substrate): 14
  in vitro phosphorylation, 10 uM peptide (% of best substrate): 9
[14]
  in vitro phosphorylation, 1 uM peptide (% of best substrate): 7
  in vitro phosphorylation, 10 uM peptide (% of best substrate): 26
[15]
  in vitro phosphorylation (% of best substrate): 4
[16]
  in vitro phosphorylation, 1 uM peptide (% of best substrate): 19
  in vitro phosphorylation, 10 uM peptide (% of best substrate): 19
[17]
  in vitro phosphorylation, 1 uM peptide (% of best substrate): 7
  in vitro phosphorylation, 10 uM peptide (% of best substrate): 6
[18]
  in vitro phosphorylation, 1 uM peptide (% of best substrate): 20
  in vitro phosphorylation, 10 uM peptide (% of best substrate): 17
[19]
  in vitro phosphorylation, 1 uM peptide (% of best substrate): 31
  in vitro phosphorylation, 10 uM peptide (% of best substrate): 61
[20]
  in vitro phosphorylation, 1 uM peptide (% of best substrate): 20
  in vitro phosphorylation, 10 uM peptide (% of best substrate): 20
[21]
  in vitro phosphorylation (% of best substrate): 10
[22]
  in vitro phosphorylation (% of best substrate): 100
[23]
  in vitro phosphorylation (% of best substrate): 1
[24]
  in vitro phosphorylation, 1 uM peptide (% of best substrate): 16
  in vitro phosphorylation, 10 uM peptide (% of best substrate): 54
[25]
  in vitro phosphorylation, 1 uM peptide (% of best substrate): 2
  in vitro phosphorylation, 10 uM peptide (% of best substrate): 9
[26]
  in vitro phosphorylation, 1 uM peptide (% of best substrate): 11
  in vitro phosphorylation, 10 uM peptide (% of best substrate): 13
[27]
  in vitro phosphorylation, 1 uM peptide (% of best substrate): 11
  in vitro phosphorylation, 10 uM peptide (% of best substrate): 10
[28]
  in vitro phosphorylation, 1 uM peptide (% of best substrate): 46
  in vitro phosphorylation, 10 uM peptide (% of best substrate): 57
[29]
  in vitro phosphorylation, 1 uM peptide (% of best substrate): 11
  in vitro phosphorylation, 10 uM peptide (% of best substrate): 72
[30]
  in vitro phosphorylation, 1 uM peptide (% of best substrate): 27
  in vitro phosphorylation, 10 uM peptide (% of best substrate): 30
[31]
  in vitro phosphorylation, 1 uM peptide (% of best substrate): 6
  in vitro phosphorylation, 10 uM peptide (% of best substrate): 9
